Data published in US20230071609A1 (Genentech, published 2023).
Each block holds one binder with its values, some of them ahead of it.

Legend:
APOL6-myc-FLAG = biological target: T1, APOL6-myc-FLAG (human, UniProt Q9BWW8 1-343); experiment: immunofluorescence on transfected COS cells; grade
T1 construct: whole, on cells; In fixed, permeabilized transfected COS cells; untagged APOL6 in the western blots; not shown: C-terminal myc-FLAG tag
T1 sequence (looked up): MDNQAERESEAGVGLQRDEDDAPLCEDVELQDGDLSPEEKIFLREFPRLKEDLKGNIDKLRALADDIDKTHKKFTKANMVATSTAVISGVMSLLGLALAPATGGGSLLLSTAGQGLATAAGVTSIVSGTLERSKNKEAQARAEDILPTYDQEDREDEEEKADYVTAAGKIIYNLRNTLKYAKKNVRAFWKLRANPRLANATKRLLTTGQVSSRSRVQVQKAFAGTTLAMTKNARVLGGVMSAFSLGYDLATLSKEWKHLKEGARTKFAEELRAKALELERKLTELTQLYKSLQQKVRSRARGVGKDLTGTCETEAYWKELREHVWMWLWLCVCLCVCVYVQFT
Excerpt: COS cells were transfected as in FIG. 31A except APOL1 and APOL2 were also C-terminally myc-FLAG tagged. Overlays of APOL with epitope tags: either mouse anti-FLAG-M2 or mouse anti-myc 9E10 for anti-APOL1 rabmabs; or rabbit anti-Myc 71D10 in conjunction with mouse anti-APOL1. Signals indicate the two antibodies overlap (i.e. anti-APOL1 cross-reacts with that APOL); signals (epitope tag only) indicate no cross-reactivity. Alexa647 anti-rabbit or mouse were used for the tags to rule out the possibility that any colocalization was a bleed-through artifact. Sparsely transfected areas were imaged to permit evaluation of background staining in adjacent untransfected cells—DAPI nuclear staining identifies both untransfected and transfected cell nuclei. […] Note that none of the antibodies cross-reacted with the more distantly related APOL6. *, APOL2-myc-FLAG is presumably misfolded, since it is not as cross-reactive as untagged APOL2 (compare FIG. 31A) with several antibodies. Commercial antibodies are Sigma HPA018885, Epitomics EPR2907 (2) (Epito) and Proteintech 11486-2-AP (Ptech).
Cells were plated on LabTekII (Nalge Nunc 154534) slides and fixed at 70-100% confluency. For mAb screening, cells were fixed/permeabilized for 5 min in −20° C. methanol (EMD MX0485-6). For all other experiments, cells were fixed in 3% paraformaldehyde in PBS (EMS 15710) for 20 mins at room temperature, quenched with 50 mM NH₄Cl in PBS for 10 mins, then permeabilized with 0.1% TX-100 in PBS for 4 mins or for 1h in saponin buffer [0.4% saponin (Sigma S7900), 1% bovine serum albumin (BSA; Sigma A2153), 2% fetal bovine serum (Seradigm) in PBS]. First antibodies (stored sterile at 4° C.) were applied for 1 h at room temperature, at 1 μg/ml for screening on transfected cells or at subsequently optimized concentrations for detecting endogenous APOL1. After 3×10 min washes in PBS (for Methanol or TX-100 protocols) or saponin buffer (saponin protocol), secondary antibodies were applied at 1.88 μg/ml for 1 h at room temperature, washed 3× and mounted under No. 1.5 coverslips in ProLong Gold with DAPI (4′,6-diamidino-2-phenylindole; Life Technologies P36931).

[1] = biological target: T2, circulating APOL1 in normal human serum (human, UniProt O14791 28-398); experiment: cell-based or functional assay
T2 sequence (looked up): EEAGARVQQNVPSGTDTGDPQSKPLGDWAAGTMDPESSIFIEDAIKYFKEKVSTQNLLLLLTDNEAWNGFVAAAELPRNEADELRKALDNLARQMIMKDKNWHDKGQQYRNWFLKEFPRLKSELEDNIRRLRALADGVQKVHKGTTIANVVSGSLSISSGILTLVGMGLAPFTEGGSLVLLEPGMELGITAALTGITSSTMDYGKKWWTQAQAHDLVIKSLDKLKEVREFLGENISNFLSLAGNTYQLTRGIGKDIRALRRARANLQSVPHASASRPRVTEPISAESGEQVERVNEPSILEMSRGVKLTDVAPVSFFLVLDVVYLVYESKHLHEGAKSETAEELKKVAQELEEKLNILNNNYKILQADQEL

[2] = biological target: T3, gD-SRA-ID-GPI (construct e) (human, UniProt O14791 305-398, C-terminal GPI anchor); experiment: flow cytometry, live CHO cells; 3.3A8 is the representative for the C-terminus of MAD
T3 sequence: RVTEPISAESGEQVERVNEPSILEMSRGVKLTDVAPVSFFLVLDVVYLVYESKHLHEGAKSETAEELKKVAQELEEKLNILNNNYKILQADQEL
Procedure: (§1) Stably transfected live (not fixed or permeabilized) CHO cells expressing the gD-iAPOL1-GPI constructs indicated in FIGS. 1A-1E after induction with 5 μg/ml dox for 48 h, showing differential antibody binding at 5 μg/ml. […] White histograms are Alexa488 anti-mouse or anti-rabbit secondaries only; grey histograms are the anti-APOL1 signals. A representative histogram for each category is shown: 3.7D6 for PFD; 3.3A8 for C-terminus of MAD, 3.5H9 for N-terminus of MAD; 3.1C1 for SRA-ID; 3.2D4 for multi-domain; 3.3F7 for conformational and 3.5B10 for FACS-negative (FACS-ve). The prefix 3 in the name of the antibodies denotes murine monoclonals from Method #3 (as shown in Example 1 below); other antibodies (not illustrated here) starting with the number 4 are murine monoclonals derived from mice additionally boosted with SRA-ID protein; and prefix 5-named antibodies are rabbit monoclonals from Method #5 (Table 2A; and Example 2). […] The Sigma polyclonal (HPA018885, raised to aa 263-387) and the Epitomics rabbit monoclonal (EPR2907(2), raised to an undisclosed peptide) are SRA-ID binders. […]
(§2) Cells were harvested with 5 mM EDTA in PBS, washed once with growth media and twice with PBS. […] Signals were read in a FACSCalibur3 (Becton Dickinson), with the exception of FIG. 8A and FIG. 14, which used a FACSCelesta, and data was analyzed using FlowJo v8.4.5.

[3] = biological target: T4, untagged APOL1-G0, KIK variant, transiently expressed (COS cells) (human, UniProt O14791 29-398); experiment: immunofluorescence on transfected COS cells, 1 µg/ml; grade
T4 construct: Origene SC109941 clone with E150K, M228I, R255K
T4 chain: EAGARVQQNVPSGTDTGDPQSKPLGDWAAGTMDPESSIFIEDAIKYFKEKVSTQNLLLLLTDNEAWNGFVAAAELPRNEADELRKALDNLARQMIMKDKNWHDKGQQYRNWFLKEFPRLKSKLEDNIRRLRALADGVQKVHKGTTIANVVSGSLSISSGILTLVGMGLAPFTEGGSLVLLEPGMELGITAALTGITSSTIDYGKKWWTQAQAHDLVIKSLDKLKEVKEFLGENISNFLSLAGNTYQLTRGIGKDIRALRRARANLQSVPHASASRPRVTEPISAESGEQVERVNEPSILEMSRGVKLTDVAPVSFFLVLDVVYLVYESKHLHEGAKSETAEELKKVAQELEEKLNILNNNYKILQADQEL

[4] = biological target: T5, gD-iAPOL1-GPI (construct b, aa 61-398) (human, UniProt O14791 61-398, C-terminal GPI anchor); experiment: flow cytometry, live CHO cells, 5 µg/ml; conformational = only bound to full length APOL1
T5 construct: Stably expressed on CHO cells under a doxycycline-inducible promoter; also called gD-APOL1-GPI; gD-APOL1-G0-GPI
T5 sequence: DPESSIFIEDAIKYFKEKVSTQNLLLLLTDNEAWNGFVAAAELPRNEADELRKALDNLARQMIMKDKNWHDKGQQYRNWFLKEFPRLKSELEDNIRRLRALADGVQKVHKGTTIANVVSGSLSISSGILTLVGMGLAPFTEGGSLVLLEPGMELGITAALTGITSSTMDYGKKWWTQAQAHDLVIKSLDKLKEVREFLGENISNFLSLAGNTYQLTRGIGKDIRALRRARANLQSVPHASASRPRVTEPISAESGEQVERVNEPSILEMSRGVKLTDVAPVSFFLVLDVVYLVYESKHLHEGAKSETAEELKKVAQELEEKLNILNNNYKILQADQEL
Procedure: as §1, §2

[5] = biological target: T6, gD-PFD-MAD-GPI (construct c) (human, UniProt O14791 61-305, C-terminal GPI anchor); experiment: flow cytometry, live CHO cells; conformational = only bound to full length APOL1, but not individual domains
T6 sequence: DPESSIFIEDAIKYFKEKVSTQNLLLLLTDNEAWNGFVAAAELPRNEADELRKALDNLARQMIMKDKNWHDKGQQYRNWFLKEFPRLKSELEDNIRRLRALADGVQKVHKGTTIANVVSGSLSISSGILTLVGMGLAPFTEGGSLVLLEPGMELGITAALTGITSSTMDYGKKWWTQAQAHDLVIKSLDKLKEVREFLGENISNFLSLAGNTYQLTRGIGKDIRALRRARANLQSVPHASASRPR
Procedure: (§3) Stably transfected live (not fixed or permeabilized) CHO cells expressing the gD-iAPOL1-GPI constructs indicated in FIGS. 1A-1E after induction with 5 μg/ml dox for 48 h, showing differential antibody binding at 5 μg/ml. […] White histograms are Alexa488 anti-mouse or anti-rabbit secondaries only; grey histograms are the anti-APOL1 signals. A representative histogram for each category is shown: 3.7D6 for PFD; 3.3A8 for C-terminus of MAD, 3.5H9 for N-terminus of MAD; 3.1C1 for SRA-ID; 3.2D4 for multi-domain; 3.3F7 for conformational and 3.5B10 for FACS-negative (FACS-ve). The prefix 3 in the name of the antibodies denotes murine monoclonals from Method #3 (as shown in Example 1 below); other antibodies (not illustrated here) starting with the number 4 are murine monoclonals derived from mice additionally boosted with SRA-ID protein; and prefix 5-named antibodies are rabbit monoclonals from Method #5 (Table 2A; and Example 2). […] The Sigma polyclonal (HPA018885, raised to aa 263-387) and the Epitomics rabbit monoclonal (EPR2907(2), raised to an undisclosed peptide) are SRA-ID binders. Successful APOL1 surface expression of each construct was confirmed with the anti-gD epitope tag (gD-tag) antibody (to Herpes Simplex Virus glycoprotein D).
(§4) Cells were harvested with 5 mM EDTA in PBS, washed once with growth media and twice with PBS. Approximately 0.5×10⁶/m1 of cells resuspended in PBS were incubated with anti-APOL1 antibodies for 1 h on ice. Following two PBS washes, 2 μg/ml of Alexa488 anti-mouse or anti-rabbit (Invitrogen A11029 and A21206, respectively) was used for 1 h on ice for detection. Cells were washed twice in PBS and resuspended in PBS with 1 μg/ml propidium iodide. Signals were read in a FACSCalibur3 (Becton Dickinson), with the exception of FIG. 8A and FIG. 14, which used a FACSCelesta, and data was analyzed using FlowJo v8.4.5.

[6] = biological target: T3, gD-SRA-ID-GPI (construct e); experiment: as above
Procedure: as §3, §4

[7] = biological target: T7, gD-MAD-SRA-ID-GPI (construct d) (human, UniProt O14791 238-398, C-terminal GPI anchor); experiment: as above
T7 sequence: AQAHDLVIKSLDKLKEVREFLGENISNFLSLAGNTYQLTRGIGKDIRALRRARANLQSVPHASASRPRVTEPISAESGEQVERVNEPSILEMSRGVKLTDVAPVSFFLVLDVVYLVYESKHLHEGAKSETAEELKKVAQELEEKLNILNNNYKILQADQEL
Procedure: as §3, §4

[8] = biological target: T2, circulating APOL1 in normal human serum; experiment: immunoprecipitation from normal human serum with Dynabead-conjugated antibody
Procedure: FIGS. 17A-17C show immunoprecipitation of APOL1 from NHS with a different set of APOL1 antibodies. FIG. 17A show as in FIG. 5D that all the blocking antibodies could immunoprecipitate APOL1, except the conformational antibody 3.7F5 (SEQ ID NOS: 203-212), which is also a poor blocker.
Anti-APOL1 antibodies were conjugated to Dynabeads (ThermoFisher 14311D) as per the manufacturer's protocol. Briefly, 10 μg of each antibody was conjugated to 2 mg of Dynabeads overnight at 37° C. with rotation. Next day, unbound antibody was washed off and conjugated antibody was resuspended at a final concentration of 50 μg/ml. 2-5 μg of the conjugated antibody was incubated with 1 μl of undiluted human serum at 4° C. for 16 h in a total volume of 500 μl with PBS. Unbound serum was washed with 150 mM NaCl in PBS. Bound APOL1 was eluted with low pH glycine buffer (this was preferable to direct boiling to avoid elution of non-specifically bound proteins). Eluates were boiled in 5× sample buffer (Invitrogen 39000) and loaded on 4-12% Bis-Tris gels (Invitrogen NP03220). Immunoprecipitated APOL1 was detected by rabbit polyclonal APOL1 antibody (Proteintech 11486-2-AP, 1:1000) and ECL. APOA1 was detected with goat anti-APOA1 (Rockland 600-101-109), HPR was detected with 1 μg/ml rabbit anti-HPR (Millipore ABS 196) and ECL Prime. […]

binding result (APOL6-myc-FLAG): no binding (tested: 1 µg/ml)
IC50 of blocking of serum APOL1-mediated trypanolysis (Alamar Blue) [1]: 0.4 nM
binding result [2]: no binding (tested: 5 µg/ml)
binding result [3]: binds
B1: antibody 3.3A8 (antibody, V domains shown)
VH: QVQFQQSGAELVRPGASVKVTCKALGYTFSNYEIHWVRQPPVHGLEWIGAIHPGNGVTAYNQMFKGRATLAADKSSSTAYMELSSLTSEDSAVYYCTENFDYWGQGTALTVSS
VL: DVVVTQTPLSLPVSFGDQVSISCRSSQSLTNSYGITYLSWFLLKPGQSPQLLIYEISNRFSGVPDRFSGSGSGTDFTLKISTIKPEDLGVYFCLQGTHQPFTFGAGTKLEIKR
notes: Mouse mAb, cloned as murine IgG2a LALAPG; also called MAD antibody 3.3A8

binding result [4]: binds
binding result [5]: no binding (tested: 5 µg/ml)
binding result [6]: no binding (tested: 5 µg/ml)
binding result [7]: no binding (tested: 5 µg/ml)
B2: antibody 3.3F7 (antibody, V domains shown)
VH: QVQLKQSGPSLVQPSQSLSITCTVSGFSLTTYGVHWVRQSPGKGLEWLGVIWRGGNTDYNAAFMSRLSITKDNSQSQVFFKMNSLQADDTAIYYCAKSSYGYHYTMDYWGHGTSVTVSS
VL: DIVVTQSHRFMSTSVGDRVIITCKASQNVGTAVAWYQQKPGQSPKLLIYWASTRHTGVPDRFTGSGSGTDFTLTISNVQSEDLADYFCQRYNNFPFTFGSGTKLEIKR
notes: Mouse mAb, cloned as murine IgG2a LALAPG

binding result [8]: no binding
B3: antibody 3.7F5 (antibody, V domains shown)
VH: EIHLQQSGPEVVQPGASLKVSCKASDYSFTDYNVFWVKQSHGKSLEWIAYIDPYNGATSYNQKFKDKATLTVDKSSSTAFMYLNSLTSEDSAVYYCARGTVRAFFDSWGQGTTLTVSS
VL: DIVMSQSPSSLVVSVGEKVSLSCKSSQSLLYRNDQINYLAWYQQKPGQSPKLLIFWASTRESGVPVRFTGSGSGTDFTLNINTVKAEDLAVYYCQQYYSYPPTFGTGTKLEIKR
notes: Mouse mAb, cloned as murine IgG2a LALAPG; also called conformational antibody 3.7F5
